Experimental findings from the supplement of paper PMC10567573 are described below.

B1: PI4K2A (parent)
chain: FVKDPQGRIIAVFKPKNEEPYGHL
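Also: lentivirally expressed fusions sorted by FACS into six bins by GFP to DsRed ratio, PSI derived from sequencing read proportions per bin multiplied by bin number.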

The variants in this series derive from B1. Kind of series: protein stability index of a GFP-peptide fusion (GPS, HEK-293T) (PSI 1-6); higher = more stable. The settings on record: c terminus: a fixed tail appended.
Regarding FVKDPQGRIIAVFKPKNVEPYGHL [E18V], the protein stability index came out at 2.23.
Take FVKDPQGRIIAVFKPKNAEPYGHL [E18A]: the protein stability index worked out at 2.39.
As for FVKDPQGRIIAVFKPKNSEPYGHL [E18S], the figure is 2.2.
Regarding FVKDPQGRIIAVFKPKNPEPYGHL [E18P], the protein stability index came to 1.79.
As for FVKDPQGRIIAVFKPKNMEPYGHL [E18M], the protein stability index was found to be 2.08.
For FVKDPQGRIIAVFKPKNHEPYGHL [E18H], the protein stability index amounted to 1.62.
FVKDPQGRIIAVFKPKNLEPYGHL [E18L]: the protein stability index amounted to 3.88.
As for FVKDPQGRIIAVFKPKNCEPYGHL [E18C], the figure is 2.02.
Take FVKDPQGRIIAVFKPKNGEPYGHL [E18G]: the protein stability index was 3.17.
As for FVKDPQGRIIAVFKPKNKEPYGHL [E18K], the protein stability index was 2.04.
Regarding FVKDPQGRIIAVFKPKNNEPYGHL [E18N], the protein stability index amounted to 1.48.
As to FVKDPQGRIIAVFKPKNDEPYGHL [E18D], the protein stability index came out at 2.16.
As to FVKDPQGRIIAVFKPKNTEPYGHL [E18T], the protein stability index was found to be 1.35.
With FVKDPQGRIIAVFKPKNYEPYGHL [E18Y], the protein stability index was determined as 2.98.
For the variant FVKDPQGRIIAVFKPKNIEPYGHL [E18I], the protein stability index was 2.22.
Consider FVKDPQGRIIAVFKPKNQEPYGHL [E18Q], for which the protein stability index was determined as 1.8.
Take FVKDPQGRIIAVFKPKNREPYGHL [E18R]: the protein stability index was 2.1.
For the variant FVKDPQGRIIAVFKPKNFEPYGHL [E18F], the protein stability index turned out to be 1.96.
The same measure for FVKDPQGRIIAVFKPKNELPYGHL [E19L]: 2.34; for FVKDPQGRIIAVFKPKNEKPYGHL [E19K]: 2.58; for FVKDPQGRIIAVFKPKNEFPYGHL [E19F]: 1.52.
As to FVKDPQGRIIAVFKPKNETPYGHL [E19T], the protein stability index stood at 2.09.
Take FVKDPQGRIIAVFKPKNEGPYGHL [E19G]: the protein stability index was 1.67.
As for FVKDPQGRIIAVFKPKNEYPYGHL [E19Y], the protein stability index turned out to be 1.73.
The same measure for FVKDPQGRIIAVFKPKNENPYGHL [E19N]: 1.91; for FVKDPQGRIIAVFKPKNEIPYGHL [E19I]: 2.62.
Regarding FVKDPQGRIIAVFKPKNEWPYGHL [E19W], the protein stability index is 2.91.
Regarding FVKDPQGRIIAVFKPKNERPYGHL [E19R], the protein stability index was 1.34.
On to FVKDPQGRIIAVFKPKNEMPYGHL [E19M], for which the protein stability index was 1.81.
As for FVKDPQGRIIAVFKPKNESPYGHL [E19S], the figure is 1.71.
Consider FVKDPQGRIIAVFKPKNEPPYGHL [E19P], for which the protein stability index is 1.78.
On to FVKDPQGRIIAVFKPKNEHPYGHL [E19H], for which the protein stability index stood at 2.1.
The same measure for FVKDPQGRIIAVFKPKNEAPYGHL [E19A]: 1.58; for FVKDPQGRIIAVFKPKNECPYGHL [E19C]: 2.52.
In the case of FVKDPQGRIIAVFKPKNEVPYGHL [E19V], the protein stability index came to 1.73.
For FVKDPQGRIIAVFKPKNEQPYGHL [E19Q], the protein stability index came out at 2.03.
FVKDPQGRIIAVFKPKNEDPYGHL [E19D]: the protein stability index was found to be 2.16.
In the case of FVKDPQGRIIAVFEPKNEEPYGHL [K14E], the protein stability index was 2.09.
As for FVKDPQGRIIAVFMPKNEEPYGHL [K14M], the figure is 3.22.
As to FVKDPQGRIIAVFAPKNEEPYGHL [K14A], the protein stability index came out at 2.09.
With FVKDPQGRIIAVFYPKNEEPYGHL [K14Y], the protein stability index was 2.23.
For FVKDPQGRIIAVFIPKNEEPYGHL [K14I], the protein stability index is 1.97.
FVKDPQGRIIAVFWPKNEEPYGHL [K14W]: the protein stability index turned out to be 1.78.
The same measure for FVKDPQGRIIAVFGPKNEEPYGHL [K14G]: 2.46.
Take FVKDPQGRIIAVFTPKNEEPYGHL [K14T]: the protein stability index was determined as 2.17.
For FVKDPQGRIIAVFHPKNEEPYGHL [K14H], the protein stability index amounted to 2.03.
FVKDPQGRIIAVFQPKNEEPYGHL [K14Q]: the protein stability index turned out to be 2.2.
On to FVKDPQGRIIAVFNPKNEEPYGHL [K14N], for which the protein stability index came out at 1.13.
On to FVKDPQGRIIAVFSPKNEEPYGHL [K14S], for which the protein stability index was determined as 3.13.
On to FVKDPQGRIIAVFPPKNEEPYGHL [K14P], for which the protein stability index came out at 2.07.
Regarding FVKDPQGRIIAVFLPKNEEPYGHL [K14L], the protein stability index came out at 2.08.
For the variant FVKDPQGRIIAVFVPKNEEPYGHL [K14V], the protein stability index was 1.47.
As for FVKDPQGRIIAVFDPKNEEPYGHL [K14D], the figure is 2.49; as for FVKDPQGRIIAVFRPKNEEPYGHL [K14R], 1.18; as for FVKDPQGRIIAVFFPKNEEPYGHL [K14F], 2.67.
Consider FVKDPQGRIIAVFCPKNEEPYGHL [K14C], for which the protein stability index was 2.56.
As for FVKDPQGRIIAVFKPKCEEPYGHL [N17C], the figure is 2.31; as for FVKDPQGRIIAVFKPKPEEPYGHL [N17P], 2; as for FVKDPQGRIIAVFKPKAEEPYGHL [N17A], 2.52.
Turning to FVKDPQGRIIAVFKPKHEEPYGHL [N17H], the protein stability index was found to be 2.38.
The same measure for FVKDPQGRIIAVFKPKFEEPYGHL [N17F]: 1.57; for FVKDPQGRIIAVFKPKDEEPYGHL [N17D]: 1.84.
As for FVKDPQGRIIAVFKPKTEEPYGHL [N17T], the protein stability index is 1.92.
For FVKDPQGRIIAVFKPKGEEPYGHL [N17G], the protein stability index was 1.48.
As for FVKDPQGRIIAVFKPKEEEPYGHL [N17E], the figure is 2.33; as for FVKDPQGRIIAVFKPKMEEPYGHL [N17M], 1.9; as for FVKDPQGRIIAVFKPKWEEPYGHL [N17W], 2.41.
The same measure for FVKDPQGRIIAVFKPKREEPYGHL [N17R]: 1.3.
FVKDPQGRIIAVFKPKIEEPYGHL [N17I]: the protein stability index came out at 1.63.
Turning to FVKDPQGRIIAVFKPKQEEPYGHL [N17Q], the protein stability index was 1.97.
FVKDPQGRIIAVFKPKYEEPYGHL [N17Y]: the protein stability index came out at 1.68.
For FVKDPQGRIIAVFKPKKEEPYGHL [N17K], the protein stability index worked out at 1.73.
Regarding FVKDPQGRIIAVFKPKSEEPYGHL [N17S], the protein stability index is 1.64.
Turning to FVKDPQGRIIAVFKPKVEEPYGHL [N17V], the protein stability index was 1.66.
As for FVKDPQGRIIAVFKPKLEEPYGHL [N17L], the figure is 2.35; as for FVKDPQGRIIAVFKPGNEEPYGHL [K16G], 1.46.
As for FVKDPQGRIIAVFKPVNEEPYGHL [K16V], the protein stability index was found to be 2.79.
For FVKDPQGRIIAVFKPSNEEPYGHL [K16S], the protein stability index worked out at 1.48.
The same measure for FVKDPQGRIIAVFKPHNEEPYGHL [K16H]: 1.97; for FVKDPQGRIIAVFKPPNEEPYGHL [K16P]: 1.7; for FVKDPQGRIIAVFKPQNEEPYGHL [K16Q]: 2.23.
FVKDPQGRIIAVFKPRNEEPYGHL [K16R]: the protein stability index turned out to be 1.77.
Consider FVKDPQGRIIAVFKPTNEEPYGHL [K16T], for which the protein stability index stood at 1.42.
As for FVKDPQGRIIAVFKPYNEEPYGHL [K16Y], the figure is 2.44; as for FVKDPQGRIIAVFKPINEEPYGHL [K16I], 2.31; as for FVKDPQGRIIAVFKPNNEEPYGHL [K16N], 1.68.
As for FVKDPQGRIIAVFKPMNEEPYGHL [K16M], the protein stability index worked out at 1.98.
On to FVKDPQGRIIAVFKPFNEEPYGHL [K16F], for which the protein stability index worked out at 2.44.
With FVKDPQGRIIAVFKPANEEPYGHL [K16A], the protein stability index amounted to 1.91.
As for FVKDPQGRIIAVFKPCNEEPYGHL [K16C], the figure is 1.63.
On to FVKDPQGRIIAVFKPLNEEPYGHL [K16L], for which the protein stability index was found to be 1.66.
Turning to FVKDPQGRIIAVFKPWNEEPYGHL [K16W], the protein stability index came to 2.23.
Turning to FVKDPQGRIIAVFKPENEEPYGHL [K16E], the protein stability index was found to be 2.3.
As to FVKDPQGRIIAVFKPDNEEPYGHL [K16D], the protein stability index came out at 2.22.
